Laboratory results as given in article PMC3572731 (Journal of molecular biology, 2012).

Assays:
crystal structure = molecular target: the molecule itself; assay: crystal structure
SEC = molecular target: the molecule itself; assay: SEC

Row | Protein | binding result (crystal structure) | stoichiometry N (SEC)
1 | Sf6 terminase small subunit gp1 R48A mutant (natural protein) MATEPKAGRPSDYMPEVADDICSLLSSGESLLKVCKRPGMPDKSTVFAWLAKHEDFRDKYAKATEARADSIFEEIFEIADNAIPDAAEVAKARLRVDTRKWALARMNPRKYGDKVTNELVGKDGGAIQIETSPMSTLFGK | binds | –
2 | Sf6 terminase small subunit gp1 D19R mutant (natural protein, Shigella phage Sf6, UniProt Q716H4 1-140, looked up) MATEPKAGRPSDYMPEVARDICSLLSSGESLLKVCKRPGMPDKSTVFRWLAKHEDFRDKYAKATEARADSIFEEIFEIADNAIPDAAEVAKARLRVDTRKWALARMNPRKYGDKVTNELVGKDGGAIQIETSPMSTLFGK | binds | –
3 | Sf6 terminase small subunit gp1 K59E mutant (natural protein) MATEPKAGRPSDYMPEVADDICSLLSSGESLLKVCKRPGMPDKSTVFRWLAKHEDFRDEYAKATEARADSIFEEIFEIADNAIPDAAEVAKARLRVDTRKWALARMNPRKYGDKVTNELVGKDGGAIQIETSPMSTLFGK | binds | –
4 | Sf6 terminase small subunit gp1 E73A mutant (natural protein, Shigella phage Sf6) MATEPKAGRPSDYMPEVADDICSLLSSGESLLKVCKRPGMPDKSTVFRWLAKHEDFRDKYAKATEARADSIFAEIFEIADNAIPDAAEVAKARLRVDTRKWALARMNPRKYGDKVTNELVGKDGGAIQIETSPMSTLFGK | – | 8
